Source: patent publication US20240425571A1, “GLYCOPROTEIN A REPETITIONS PREDOMINANT (GARP)-BINDING ANTIBODIES AND USES THEREOF” (OHIO STATE INNOVATION FOUNDATION, priority 2021, published 2024)
Changes are numbered by the printed parent chain.

B1: H1L2: humanized PIIO-1 antibody, VH SEQ ID NO: 20 and VL SEQ ID NO: 24 (antibody, V domains shown)
VH: QVQLQESGPGLVKPSQTLSLTCTVSGYSITSDYAWNWIRQFPGNKLEWMGYISYSGSTSYTPSLKSRVTISRDTSKNHFSLKLSSVTAADTAVYYCAKSGGDYYGSSSYWYFDVWGQGTMVTVSS
VL: DIVLTQSPSSLAVSLGERVTMNCKSSQSLLNSRSQKNYLAWYQQKPGQPPKLLIYGASTRGSGVPDRFSGSGSGTDFTLTISSVQAEDVAVYYCQNDHSYPFTFGQGTKLEIKR
B2: H2L1: humanized PIIO-1 antibody, VH SEQ ID NO: 21 and VL SEQ ID NO: 23 (antibody, V domains shown)
VH: B1 VH with V68I, S80F
VL: B1 VL with V19A, V84L

Key:
Ag(−) cell = assay: FACS analysis with Ag(−) cell (non-specific binding); details: 5 ug/ml
Procedure: Methods—FACS analysis. Cell preparation: Cell were harvested and washed with PBS+2% FBS for one time. Cell density was adjusted to 1.5E6/mL in PBS/2% FBS. Cell were added to 96 U-bottom well plates at 100 μL/well. Antibody samples preparation: Antibody in supernatant was adjusted to 10 μg/mL using PBS+2% FBS, with serial 5 times dilution performed to obtain 3 concentrations of antibody solution. The blank was PBS+2% FBS. Antibody solutions were placed into 96 U-bottom well plates at 100 μL/well in the same arranging pattern as the cell preparation. Incubation: The antibody samples (100 μl) were mixed with the cells (100 μl), and incubated at RT for 1 h, then centrifuged the plate for 3 min at 1000 rpm (swing bucket). The supernatant was pipetted and the cells were washed with PBS+2% FBS for one time. Incubation with the secondary antibody: Cy3-Conjugated AffiniPure Goat Anti-Human IgG was diluted 250× by PBS+2% FBS, and added to the 96 U-bottom well plate with 100 μl/well, then incubated at RT for 30 min. After that, the plate was centrifuged at 1000 rpm for 3 min and the supernatant was pipetted out. The cell was washed with PBS+2% FBS twice. Cells were re-suspended in 200 μl PBS+2% FBS and analyzed on FACS. The MFI of total live cells were used as binding signal.
Methods—heat treatment. Culture supernatant was serial diluted to the indicated concentration of IgG with cell media and heated at 70° C. for 5 mins on a PCR machine, then quickly cooled down to room temperature.

antigen = target: T1, antigen (Homo sapiens, UniProt Q14392); assay: Label-free kinetic binding assay on Gator; details: for Rmax / koff / kon: IgG 2 μg/ml on anti-human Fc probes, antigen 5 μg/ml
T1 sequence (Q14392 20-662): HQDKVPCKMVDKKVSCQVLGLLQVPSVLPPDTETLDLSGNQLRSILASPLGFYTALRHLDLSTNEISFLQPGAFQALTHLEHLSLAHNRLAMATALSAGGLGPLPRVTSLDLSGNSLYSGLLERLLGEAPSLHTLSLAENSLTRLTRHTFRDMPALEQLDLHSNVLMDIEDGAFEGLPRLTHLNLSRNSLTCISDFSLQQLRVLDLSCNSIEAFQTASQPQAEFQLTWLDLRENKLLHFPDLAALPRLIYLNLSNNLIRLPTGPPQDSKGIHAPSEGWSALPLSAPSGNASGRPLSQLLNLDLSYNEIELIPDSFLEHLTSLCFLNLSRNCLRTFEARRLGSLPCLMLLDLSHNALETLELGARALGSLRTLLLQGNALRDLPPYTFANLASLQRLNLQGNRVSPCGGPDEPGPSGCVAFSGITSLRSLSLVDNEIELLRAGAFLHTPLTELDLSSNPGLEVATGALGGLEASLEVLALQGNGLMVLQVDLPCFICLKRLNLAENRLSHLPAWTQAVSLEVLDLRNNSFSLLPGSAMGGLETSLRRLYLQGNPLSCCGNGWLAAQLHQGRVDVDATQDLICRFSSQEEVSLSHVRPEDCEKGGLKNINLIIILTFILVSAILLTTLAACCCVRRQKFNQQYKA
Procedure: Affinity measurement. Label-free kinetic binding assay was performed on Gator (similar to Octet).
Methods. Affinity was measured on Gator (ProbeLife, Palo Alto). In brief, the purified IgG sample was diluted in K buffer at 2 μg/ml, and the antigen was diluted at 5 μg/ml. The antibody-loaded anti-human Fc probes were dipped in antigen wells for 5 mins and then moved to K buffer wells for 5 mins. In the whole process, the sample plate was shaken at 1,000 rpm. The data analysis was carried out using Gator software (ProbeLife).

[1] = Thermostability by DSF/SLS (UNcle); format: physicochemical; details: for SLS Tagg 266: SLS at 266 nm; for SLS Tagg 473: SLS at 473 nm
Procedure: Developability Analysis for PIIO-1 humanization leads. Antibodies were analyzed for thermostability by DSF/SLS. Samples were submitted to the UNcle system (Unchained Labs) for analysis. A temperature ramp of 1° C./min was performed with monitoring from 20° C. to 95° C. for DSF and SLS. UNcle measures SLS at 266 nm and 473 nm. Tm and Tagg were calculated and analyzed by using the UNcle Analysis Software. DSF: Differential scanning fluorimetry; SLS: Static light scattering; Tm: Melting temperature; Tagg 266: Thermal aggregation when SLS at 266 nm; Tagg 473: Thermal aggregation when SLS at 473 nm. A summary is shown below in Table F:
IgG is a multi-domain structure and each domain has its own melting Temperature (Tm). […] Fabs have Tm in a wide range, generally about 50-85° C., due to large sequence variation. Therefore, the Tm values measured by various analytical techniques are usually “apparent” transition temperatures rather than the real Tm for each domain. In the case of whole IgG, there are often 2-3 Tm values in DSF measurement, presenting some challenge in determining which Tm represents which domain.
Tagg is the temperature at which SLS starts to detect aggregation particles. Tagg266 measures SLS at 266 nm, which is more sensitive and suitable to detect smaller aggregation particles. Tagg473 measures SLS at 473 nm and is better to detect larger particles.

[2] = Aggregation potential by DLS analysis; format: physicochemical; details: for Peak 1 Mass / Peak 1 Mode Diameter / Peak 1 PDI / Peak 2 Mass: DLS at 25° C.
Procedure: Aggregation potential by DLS analysis. DLS was performed on UNcle system (Unchained Labs). DLS was measured at 25° C. Data was calculated and analyzed using UNcle Analysis Software. DLS: Dynamic light scattering PDI: Polydispersity index, PDI=(standard deviation/mean hydrodynamic radius).
Dynamic Light Scattering (DLS) is used to detect aggregation in the antibody sample. “Mode diameter” is protein particle diameter and “mass percentage” is the amount of each size fraction in percentage. “PDI” is Polydispersity Index; the higher this index, the more polydispersity in the sample is. […] Peak 1 is the major peak and represents the IgG monomer. The inventor takes “Peak 1 mass percentage” and “PDI” value into consideration in selecting a lead.

[3] = Reducing CE-SDS (heterogeneity); format: physicochemical; details: for OTHER (%) / PK#1 (%) / PK#2 (%) / PK#3 (%): Reducing-CE-SDS
Procedure: (§1) Analysis of the heterogeneity by Capillary Electrophoresis (CE). The sample was prepared in reducing and non-reducing labeling buffer before being submitted to the CE analysis. A summary of the Reducing-CE-SDS and Non-Reducing-CE-SDS results are shown in FIG. 13A/Table H and FIG. 13B/Table I, respectively: […]

[4] = Non-reducing CE-SDS (heterogeneity); format: physicochemical
Procedure: as §1

Baculovirus = Baculovirus (BV) ELISA for non-specific binding
Procedure: Baculovirus (BV) ELISA was employed as a preliminary assay to evaluate antibody's potential nonspecific binding risk.
In Baculovirus (BV) ELISA, the inventor used Rituxan Mab as reference. […] If a clone only has binding on BV, but not on 293 cells, it will be considered as having a low risk of non-specific binding.
Methods—Baculovirus ELISA. Plates are coated with 50 μl of 1:500 diluted Baculovirus sample in PBS in each well. Plates are kept at 4° C. for overnight. The plates are washed with 300 μL of wash buffer ×3 and 200 μl blocking buffer (1% BSA) is added at RT for 60 min. Plates are washed with 300 μl of wash buffer ×3 and 100 μl of diluted Abs are added at different concentrations/well, followed by RT incubation for 1 hr. Plates are washed with 300 μl of wash buffer ×6 and 100 μl of 1:5000 HRP conjugated second Ab in PBS is added followed by RT incubation for 1 hr. The plates are washed with 300 μl of wash buffer ×6. Developing buffer is added and the plate is read.

[5] = ramp 1° C./min, 20° C. to 95° C.

Molecule | FACS with Ag(−) cell (MFI) (Ag(−) cell; Heating) | FACS with Ag(−) cell (MFI) (Ag(−) cell; Non-Heating) | KD value compared with the chimeric (antigen) | Rmax (antigen) | koff (antigen) | kon (antigen) | SLS Tagg 266 [1] [°C] | SLS Tagg 473 [1] [°C] | DSF TM2 [1, 5] [°C] | DSF Tm1 [1, 5] [°C] | comparison of humanized antibodies by Table G [2] | Peak 1 Mass [2] [%] | Peak 1 Mode Diameter [2] [nm] | Peak 1 PDI [2] | Peak 2 Mass [2] [%] | OTHER (%) [3] [%] | PK#1 (%) [3] [%] | PK#2 (%) [3] [%] | PK#3 (%) [3] [%] | Main Peak (%) [4] [%] | also measured
B1 | 3.35 | 3.24 | same KD value to the chimeric | 0.885 | 0.000813 | 9.98E+04 | 78.8 | 79.3 | 76.7 | 70.0 | superior to huPIIO-1VH1VL1 | 99.94 | 9.68 | 0.361 | 0 | 0.9 | 1.4 | 29.1 | 68.7 | 97.6 | thermostability compared with parental 4D3 chimeric antibody (Table F) [1]: superior thermostability over the parental 4D3 chimeric antibody; aggregation risk ([1]; from Tagg266 and Tagg473 in SLS assay): very low aggregation risk; DSF Tm3 [1, 5]: 87.5 °C; PDI compared with WT ([2]; listed as VH1VL2): slightly higher PDI than that of the chimeric clone; homogeneity (Table H) [3]: superior homogeneity versus clone huPIIO-1VH2VL1; OTHER (%) [4]: 2.4%; BV ELISA with purified IgG, raw BV binding data (Baculovirus; Ab. Conc. 0.15625 ug/ml): 15.6; BV ELISA with purified IgG, raw BV binding data (Baculovirus; Ab. Conc. 0.3125 ug/ml): 15.4; BV ELISA with purified IgG, raw BV binding data (Baculovirus; Ab. Conc. 0.625 ug/ml): 23.5; BV ELISA with purified IgG, raw BV binding data (Baculovirus; Ab. Conc. 1.25 ug/ml): 26.6; BV ELISA with purified IgG, raw BV binding data (Baculovirus; Ab. Conc. 2.5 ug/ml): 39.6; BV ELISA with purified IgG, raw BV binding data (Baculovirus; Ab. Conc. 5 ug/ml): 38.1; BV ELISA with purified IgG, raw BV binding data (Baculovirus; Ab. Conc. 10 ug/ml): 102.3; BV ELISA with purified IgG, raw BV binding data (Baculovirus; Ab. Conc. 20 ug/ml): 253.4; BV-binding in words (Baculovirus; purified antibodies, Rituxan as reference): a bit higher signal
B2 | 3.29 | 3.23 | same KD value to the chimeric | 0.756 | 0.000806 | 1.00E+05 | 73.7 | 74.7 | 83.2 | 69.9 | superior to huPIIO-1VH1VL1 | 100 | 9.68 | 0.141 | 0 | 2.7 | 21.7 | 6.9 | 68.7 | 89.1 | OTHER (%) [4]: 10.8%; BV ELISA with purified IgG, raw BV binding data (Baculovirus; Ab. Conc. 0.15625 ug/ml): 14.5; BV ELISA with purified IgG, raw BV binding data (Baculovirus; Ab. Conc. 0.3125 ug/ml): 14.6; BV ELISA with purified IgG, raw BV binding data (Baculovirus; Ab. Conc. 0.625 ug/ml): 15.6; BV ELISA with purified IgG, raw BV binding data (Baculovirus; Ab. Conc. 1.25 ug/ml): 18.3; BV ELISA with purified IgG, raw BV binding data (Baculovirus; Ab. Conc. 2.5 ug/ml): 17.8; BV ELISA with purified IgG, raw BV binding data (Baculovirus; Ab. Conc. 5 ug/ml): 30.8; BV ELISA with purified IgG, raw BV binding data (Baculovirus; Ab. Conc. 10 ug/ml): 82.7; BV ELISA with purified IgG, raw BV binding data (Baculovirus; Ab. Conc. 20 ug/ml): 161.0
